{"source": "patent US7115711", "about": "(GENERAL HOSPITAL, dated 2006)", "key": {"[1]": {"target": "T1, LexA-RXR (bacterial; human, UniProt P0A7C2 1-202; P19793 196-462, limits assumed)", "T1 construct": "also called Lex fusion RXR", "T1 sequence (looked up)": "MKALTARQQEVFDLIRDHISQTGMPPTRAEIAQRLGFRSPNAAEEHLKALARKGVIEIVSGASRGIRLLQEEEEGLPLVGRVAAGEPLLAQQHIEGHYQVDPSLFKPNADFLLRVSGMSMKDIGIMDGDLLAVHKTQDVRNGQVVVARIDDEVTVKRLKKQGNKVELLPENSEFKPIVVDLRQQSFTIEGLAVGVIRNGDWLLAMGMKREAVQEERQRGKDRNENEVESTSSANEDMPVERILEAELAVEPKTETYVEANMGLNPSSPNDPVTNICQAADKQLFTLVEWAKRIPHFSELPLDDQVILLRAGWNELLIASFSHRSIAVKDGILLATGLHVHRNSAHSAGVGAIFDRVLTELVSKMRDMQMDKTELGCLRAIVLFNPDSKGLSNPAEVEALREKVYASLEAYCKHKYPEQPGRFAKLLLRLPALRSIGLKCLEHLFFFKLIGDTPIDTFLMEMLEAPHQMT", "test": "yeast interaction trap screen; clones showing specific interaction with LexA-RXR; one clone starting at amino acid 170", "description": "(§1) From 3×10^6 primary yeast transformants, a number of β-gal expressing colonies were identified in two independent screens carried out in the presence or absence of 9-cis-RA. Since expression of the B42-cDNA fusion proteins was induced by growth on galactose, candidates obtained from each condition were tested for galactose-dependent expression of both β-gal and LEU2, in the presence or absence of 9-cis-RA, using appropriate indicator plates (see below).\n(§2) Candidates showing specific interaction with LexA-RXR were sequenced across the B42 fusion junction using an appropriate vector primer, and additional sequence was determined. The deduced amino acid sequences were compared to those in the GenBank and EMBL databases using the GCG (Devereux et al., Nucleic Acids Res. 12:387–395, 1984) and BLAST programs (Altschul et al., J. Mol. Biol. 215:403–410, 1990). […] All of these clones included intact ligand binding domains, as expected from the fact that the major heterodimerization function lies within that domain. For PPAR (Issemann et al., Nature 347:645–650, 1990), three clones started at amino acid 84, just N-terminal to the DNA binding (C) domain, four others started at 91, within the C domain, and one at 170, just past the C domain. For RAR (Leroy et al., EMBO J. 10:59–69), all six clones started at amino acid 132, within the C domain."}, "[2]": {"target": "T2, Human RXRα protein (human, UniProt P19793 1-462, limits assumed)", "T2 construct": "Used in the gel shifts", "T2 sequence (looked up)": "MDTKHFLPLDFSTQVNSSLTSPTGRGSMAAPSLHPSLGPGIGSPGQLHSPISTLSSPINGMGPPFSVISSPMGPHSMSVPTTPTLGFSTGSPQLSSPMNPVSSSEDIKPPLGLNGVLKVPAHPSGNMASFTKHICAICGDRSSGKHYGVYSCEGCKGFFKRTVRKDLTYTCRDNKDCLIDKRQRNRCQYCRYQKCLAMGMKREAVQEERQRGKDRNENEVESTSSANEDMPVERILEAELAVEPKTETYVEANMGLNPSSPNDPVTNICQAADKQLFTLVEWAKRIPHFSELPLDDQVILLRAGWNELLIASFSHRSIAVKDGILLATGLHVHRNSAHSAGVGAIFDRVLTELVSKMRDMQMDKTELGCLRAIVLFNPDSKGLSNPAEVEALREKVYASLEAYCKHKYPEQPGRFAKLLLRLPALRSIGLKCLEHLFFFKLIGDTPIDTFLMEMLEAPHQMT", "test": "gel shift of in vitro translated RIP with E. coli-expressed RXRα on labeled βRARE; the complex with RXR is seen on DNA", "description": "The binding of the RIP14-2 isoform to this element was weaker than that of RIP14-1 when similar amounts of RIP14 proteins were used. […] Several other DNA elements were tested in the gel shift assay, including the retinoic acid response element from the promoter of the human RARβ2 isoform (βRARE) (de The et al., Nature 343:177–180, 1990). In the presence of RXR, the βRARE was bound by both the RIP14 isoforms and RIP15 (FIG. 8, panel B). Again, the binding of the RIP14-2/RXR heterodimer was weaker than the RIP14-1/RXR heterodimer when a similar amount of RIP14 proteins were used (FIG. 8, panel B, lanes 10 and 14).\nRIP14 and RIP15 proteins were produced by in vitro translation (Promega TNT, Madison, Wis.) using expression vectors containing the RIP genes following a T7 promoter. To generate full length RIP14-2 constructs, fragments from RIP14-1 clone No. 15 containing regions from the middle of the E domain to the 3' end replaced the corresponding regions of RIP14-2 Clones No. 3 or 12, respectively. Sequences were confirmed by DNA sequencing. Human RXRα protein was expressed in E. coli using a bacterial expression vector based on the bacteriophage T7 promoter (Carter et al., Mol. Cell. Biol. in press., 1994). […]"}, "[3]": {"target": "T1, LexA-RXR", "test": "yeast interaction trap screen; clones showing specific interaction with LexA-RXR; all six clones start at amino acid 132", "description": "as §1, §2"}, "[4]": {"target": "T3, LexA-MB67 (bacterial, UniProt P0A7C2 1-202; Q14994 76-348, limits assumed)", "T3 construct": "Made by PCR, 'analogous' to LexA-RXR and LexA-TR; also called Lex fusion MB67", "T3 sequence (looked up)": "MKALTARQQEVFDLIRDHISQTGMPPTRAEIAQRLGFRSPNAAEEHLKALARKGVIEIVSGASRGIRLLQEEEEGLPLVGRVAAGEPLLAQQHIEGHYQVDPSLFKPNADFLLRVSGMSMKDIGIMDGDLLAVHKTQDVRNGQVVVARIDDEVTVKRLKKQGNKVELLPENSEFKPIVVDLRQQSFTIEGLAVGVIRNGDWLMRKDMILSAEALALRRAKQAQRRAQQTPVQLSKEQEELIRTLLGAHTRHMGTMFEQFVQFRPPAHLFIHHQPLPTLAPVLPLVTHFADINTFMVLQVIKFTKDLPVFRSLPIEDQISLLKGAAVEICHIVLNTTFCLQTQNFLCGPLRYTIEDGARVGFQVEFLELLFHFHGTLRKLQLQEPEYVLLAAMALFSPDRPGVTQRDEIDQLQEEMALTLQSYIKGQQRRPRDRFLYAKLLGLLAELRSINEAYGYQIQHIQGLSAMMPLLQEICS", "test": "yeast interaction trap, X-gal plate; W = white (no interaction)", "description": "(§3) Interactions of the RIP clones with other superfamily members, including RAR, TR, the glucocorticoid receptor (GR), and MB67, an orphan isolated in this lab (Baes et al., Mol. Cell. Biol. 14:1544–1552, 1994) were also tested using a series of appropriate LexA fusions. In particular, the experiments shown in Table 1 were carried out as follows. Yeast transformants containing a lacZ reporter gene under the control of LexA binding sites and the indicated B42- and Lex-fusion protein expression vectors were transferred onto galactose-Ura⁻His⁻Trp⁻ plates containing X-gal and incubated for two days. Relative levels of β-galactosidase activity were estimated and are depicted as follows: B, blue (strong interaction); LB, light blue (weak interaction); W, white (no interaction); nt, not tested. At least three separate colonies were tested on the same plate for interaction. To test the effects of ligands, 100 µl of a 10^-6M solution of the appropriate ligand was spread onto plates just before inoculation of cells (9-cis-RA for RXR, T3 for TR, and all-trans-RA for RAR). For B42-PPAR, the plasmid isolated from the screening was used. Both full length and truncated RAR fusions to LexA were tested with identical results for all the B42 fusions except B42-110, which was tested only with the full length fusion."}, "[5]": {"target": "T4, LexA-TR (bacterial; rat, UniProt P0A7C2 1-202; P18113 170-461, limits assumed)", "T4 construct": "also called Lex fusion TR", "T4 sequence (looked up)": "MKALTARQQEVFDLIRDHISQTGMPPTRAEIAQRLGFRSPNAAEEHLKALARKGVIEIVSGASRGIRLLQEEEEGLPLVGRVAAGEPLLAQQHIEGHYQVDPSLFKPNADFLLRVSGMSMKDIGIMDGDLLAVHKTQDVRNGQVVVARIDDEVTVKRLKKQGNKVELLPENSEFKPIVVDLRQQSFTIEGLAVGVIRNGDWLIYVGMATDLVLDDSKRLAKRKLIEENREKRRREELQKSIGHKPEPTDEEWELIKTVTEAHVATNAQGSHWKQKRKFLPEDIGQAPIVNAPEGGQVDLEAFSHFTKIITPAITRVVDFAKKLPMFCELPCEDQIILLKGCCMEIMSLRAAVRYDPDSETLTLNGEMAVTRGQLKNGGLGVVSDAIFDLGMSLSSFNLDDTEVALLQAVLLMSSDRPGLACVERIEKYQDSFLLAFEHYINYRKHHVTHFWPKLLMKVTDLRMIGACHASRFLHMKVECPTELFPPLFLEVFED", "test": "yeast interaction trap, X-gal plate, with T3; W = white (no interaction)", "description": "as §3"}}, "data": [{"binder": "B42-PPAR clone starting at amino acid 170 (other, mouse, UniProt P23204 170-468, looked up, not shown: large carriers, range 170-C-terminus; Only the start is stated; also called PPAR (one clone)) AIRFGRMPRSEKAKLKAEILTCEHDLKDSETADLKSLGKRIHEAYLKNFNMNKVKARVILAGKTSNNPPFVIHDMETLCMAEKTLVAKMVANGVEDKEAEVRFFHCCQCMSVETVTELTEFAKAIPGFANLDLNDQVTLLKYGVYEAIFTMLSSLMNKDGMLIAYGNGFITREFLKNLRKPFCDIMEPKFDFAMKFNALELDDSDISLFVAAIICCGDRPGLLNIGYIEKLQEGIVHVLKLHLQSNHPDDTFLFPKLLQKMVDLRQLVTEHAQLVQVIKKTESDAALHPLLQEIYRDMY", "values": [{"measurement": "binding result", "setting": "[1]", "result": "binds"}]}, {"binder": "RIP15 (receptor, Intact 446 amino acid protein; It was translated in vitro for gel shifts and expressed from a CDM vector in HepG2 cells) MSSPTSSLDTPVPGNGSPQPSTSATSPTIKEEGQETDPPPGSEGSSSAYIVVILEPEDEPERKRKKGPAPKMLGHELCRVCGDKASGFHYNVLSCEGCKGFFRRSVVHGGAGRYACRGSGTCQMDAFMRRKCQLCRLRKCKEAGMREQCVLSEEQIRKKRIQKQQQQQPPPPSEPAASSSGRPAASPGTSEASSQGSGEGEGIQLTAAQELMIQQLVAAQLQCNKRSFSDQPKVTPWPLGADPQSRDARQQRFAHFTELAIISVQEIVDFAKQVPGFLQLGREDQIALLKASTIEIMLLQTARRYNHETECITFLKDFTYSKDDFHRAGLQVEFINPIFEFSRAMRRLGLDDAEYALLIAINIFSADRPNVQEPSRVEALQQPYVEALLSYTRIKRPQDQLRFPRMLMKLVSLRTLSSVHSEQVFALRLQDKKLPPLLSEIWDVHE", "values": [{"measurement": "binding result", "setting": "[2]", "result": "binds"}]}, {"binder": "B42-RAR (other, mouse, UniProt P11416 132-462, looked up, not shown: large carriers, range 132-C-terminus; All six isolated clones start at amino acid 132; also called RARα (six clones)) INKVTRNRCQYCRLQKCFDVGMSKESVRNDRNKKKKEAPKPECSESYTLTPEVGELIEKVRKAHQETFPALCQLGKYTTNNSSEQRVSLDIDLWDKFSELSTKCIIKTVEFAKQLPGFTTLTIADQITLLKAACLDILILRICTRYTPEQDTMTFSDGLTLNRTQMHNAGFGPLTDLVFAFANQLLPLEMDDAETGLLSAICLICGDRQDLEQPDKVDMLQEPLLEALKVYVRKRRPSRPHMFPKMLMKITDLRSISAKGAERVITLKMEIPGSMPPLIQEMLENSEGLDTLSGQSGGGTRDGGGLAPPPGSCSPSLSPSSHRSSPATQSP", "values": [{"measurement": "binding result", "setting": "[3]", "result": "binds"}]}, {"binder": "B42-RIP15 (other, not shown: large carriers, Original yeast clone; Its B42 fusion junction is near the beginning of the hinge (D) domain, with no residue number stated; also called B42 fusion 15; RIP15 chimera) EEQIRKKRIQKQQQQQPPPPSEPAASSSGRPAASPGTSEASSQGSGEGEGIQLTAAQELMIQQLVAAQLQCNKRSFSDQPKVTPWPLGADPQSRDARQQRFAHFTELAIISVQEIVDFAKQVPGFLQLGREDQIALLKASTIEIMLLQTARRYNHETECITFLKDFTYSKDDFHRAGLQVEFINPIFEFSRAMRRLGLDDAEYALLIAINIFSADRPNVQEPSRVEALQQPYVEALLSYTRIKRPQDQLRFPRMLMKLVSLRTLSSVHSEQVFALRLQDKKLPPLLSEIWDVHE", "values": [{"measurement": "binding result", "setting": "[4]", "result": "no binding"}, {"measurement": "binding result", "setting": "[5]", "result": "no binding"}]}]}
